Experimental data from PMC3406025, “Structure and Binding Interface of the Cytosolic Tails of αXβ2 Integrin” (PLoS ONE, 2012).

B1: cytosolic tail (CT) of integrin αX (residues K1129-K1163) (domain or fragment, UniProt P20702 1129-1163, looked up)
chain: KVGFFKRQYKEMMEEANGQIAPENGTQTPSPPSEK
notes: integrin αX (CD11c) cytosolic tail, residues K1129-K1163, 35 residues; Used 15N-labelled in one direction of the titration and unlabelled in the other; A GGGGSDP linker lay between KSI and the tail, and formic acid cleaves at the Asp-Pro site, so a Pro may remain at the N-terminus (surmised); The myristoylated synthetic αX CT (GL Biochem) was used only for the structure in DPC micelles, not for …
B2: cytosolic tail (CT) of integrin β2 (residues K724-S769) (domain or fragment, UniProt P05107 724-769, looked up)
chain: KALIHLSDLREYRRFEKEKLKSQWNNDNPLFKSATTTVMNPKFAES
notes: integrin β2 (CD18) cytosolic tail, residues K724-S769; Used 15N-labelled in one direction of the titration and unlabelled in the other; also called β2 CT; CT of β2; source: E. coli BL21DE3, KSI fusion in inclusion bodies, purified (Ni-NTA in 8 M urea, cyanogen bromide cleavage, HPLC); not shown: ketosteroid isomerase (KSI), N-terminal, cleaved

Key:
[1] = molecular target: B2; assay: NMR titration; 15N-1H HSQC; 15N-labelled CT titrated with the unlabelled cognate CT up to two times its concentration (1:2); 10 mM sodium phosphate buffer, pH 6.5, aqueous solution; done in both directions; conditions: both partners purified
[2] = molecular target: B1; assay: as above; conditions: both partners purified

| binding result [1] | binding result [2] | Binder |
| --- | --- | --- |
| binds |  | B1 |
|  | binds | B2 |
